# Test results taken from patent US20240368295A1 (SUTRO BIOPHARMA, published 2024).
# Residue numbers refer to the chain shown, from its start.
# T1: human BCMA-Fc (human, UniProt Q02223 5-51, limits assumed)
# T1 construct: Bought from R&D Systems; also called huBCMA-Fc; BCMA-Fc (R&D Systems)
# T1 chain (looked up): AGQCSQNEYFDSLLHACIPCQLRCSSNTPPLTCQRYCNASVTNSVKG
# T2: BCMA on BCMA-positive NCI-H929, ARP-1 and U266B1 cells (human, UniProt Q02223 1-184)
# T2 construct: they are human cell lines; also called B-cell maturation antigen; TNFRSF17
# T2 sequence: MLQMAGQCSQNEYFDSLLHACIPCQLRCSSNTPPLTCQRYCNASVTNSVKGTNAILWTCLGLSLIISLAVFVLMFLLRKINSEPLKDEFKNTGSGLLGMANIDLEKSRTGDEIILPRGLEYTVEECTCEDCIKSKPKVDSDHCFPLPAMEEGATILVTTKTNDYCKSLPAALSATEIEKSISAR
# B1: 10F4 (antibody, V domains shown)
# VH: AVTLDESGGGLQTPGGALSLVCKASGFTFSGYNMGWVRQAPGKGLEYVAGITYGTGSYTAYGAAVKGRATISRDNGQSTLRLQLNNLRAEDTATYYCARGGGLNSYGCSGANIDAWGHGTEVIVSS
# VL: ALTQPSSVSANLGGTVKITCSGGGNYFGSYYYGWYQQKAPGSAPVTVIYNNNNRPSDIPSRFSGSTSGSTSTLTISGVRAEDEAVYFCGGFDSSTDAIFGAGTTLTVL
# notes: chicken HybriFree-derived antibody; also called Antibody 37
# B2: 9E12 (antibody, V domains shown)
# VH: AVTLDESGGGLQTPGGGLSLVCKASGFTFSDYGLGWMRQAPGKGLEYVARINSAGSGTYYGSAVDGRATISRDNGQSTVRLQLNNLRAEDTGTYYCTRGGGGASIDGWGHGTEVIVSS
# VL: B1 VL with L12P, G14E, N25S, F27Y, A39S, V47L, S71G, S76T, F87Y, G90S
# notes: chicken HybriFree-derived antibody; also called Antibody 43
# B3: 10H1 (antibody, V domains shown)
# VH: B2 VH with G17A, D31G, L34M, G57D, Y59D, S62A, D65K, G92A, Y95F
# VL: B1 VL with L12P, G14E, F27Y, D57N, T66K, S71G, S76T, R79Q, T95S
# notes: chicken HybriFree-derived antibody; also called Antibody 45
# B4: 10E10 (antibody, V domains shown)
# VH: AVTLDESGGGLQTPGGGLSLVCKASGFTFSSYGMGWMRQAPGKGLEFVARINSGGSSYTDYGSAVKGRATISRDDGQSTVRLQLNNLRAEDTGIYYCTRGGGGASIDGWGHGTEVIVSS
# VL: B1 VL with L12P, G14E, F27A, A39S, V45L, N51S, T66L, S71G, S76T
# notes: chicken HybriFree-derived antibody; also called Antibody 46
# B5: 9A5 (antibody, V domains shown)
# VH: AVTLDESGGGLQTPGGAVSLVCKASGFSISDYGMGWMRQAPGKGLQYVARIDHDGRYTDYGAVVKGRATISRDNGQSTVRLQLNNLRAEDTGTYYCTRGGGAASIDTWGHGTEVIVSS
# VL: B1 VL with L12P, G14E, F27V, S29G, P44L, V47L, D57N, S76T, G90S
# notes: chicken HybriFree-derived antibody; also called Antibody 42
# B6: 9H1 (antibody, V domains shown)
# VH: AVTLDESGGGLQTPGGALSLVCKGSGFTFSDYGMGWMRQAPGKGLQYVARINSAGSDTNYGSAVKGRATISRDDGQSTVRLQLSSLRAEDTGIYYCTRGGGGASIDGWGHGTEVIVSS
# VL: B1 VL with L12P, G14E, N25S, F27Y, A39S, V47L, S71G, S76T, F87Y, G90S
# notes: chicken HybriFree-derived antibody; also called Antibody 44
# Molecular target: T1, human BCMA-Fc
# Assay: SPR (Biacore), captured antibody
row,Binder,binding result
1,B1,no binding (tested: antigen 1-100 nM)

# Molecular target: T2, BCMA on BCMA-positive NCI-H929, ARP-1 …
# Assay: FACS, NCI-H929 cells
# Protocol: (§1) Variants for which sufficient protein was purified in secondary screening were tested in a fluorescence-activated cell sorting (FACS) cell-binding assay. […] 6-12 point dilutions of anti-BCMA variants starting from concentrations of about 100-200 nM antibody were dispensed into each well using a BioMekFX (Beckman Coulter). Cells were then incubated on ice for 1 hr, washed with FACS buffer and incubated for 1 hr on ice with […] FACS buffer containing […] Alexa647-conjugated Goat Anti-Human IgG dispensed using BioMekFX (Beckman Coulter). Cells were then washed 2× with FACS buffer and fixed for 10 minutes in […] PBS with 2% PFA prior to fluorescence detection. Samples were acquired using a Beckton Dickinson LSRII FACS. Geometric Mean Fluorescence Intensity of BCMA antibody binding was analyzed using FlowJo® software (Trec Star, Inc.).
row,Binder,Bmax (MFI)
1,B2,8140
2,B3,22500
3,B1,18700
4,B4,3440
5,B5,19700
6,B6,6160

# Molecular target: T2, BCMA on BCMA-positive NCI-H929, ARP-1 …
# Assay: cell-based or functional assay
Binder,"ARP-1, SC239-conjugated 2° antibody cell killing, EC50 [nM]","ARP-1, SC239-conjugated 2° antibody cell killing, Span [%]","U266B1, SC239-conjugated 2° antibody cell killing, EC50 [nM]","U266B1, SC239-conjugated 2° antibody cell killing, Span [%]"
B2,1.2,80,1.4,47
B3,0.86,88,0.29,89
B1,1,87,0.36,81
B4,3,46,2.5,20
B5,0.7,93,0.29,84
B6,1.3,74,1.1,50

# Molecular target: T3, rat BCMA on 293T-ratBCMA cells (rat)
# T3 construct: whole, on cells
# Assay: FACS, 293T-ratBCMA cells
row,Binder,Bmax (MFI)
1,B2,4690
2,B3,4350
3,B1,410
4,B4,906
5,B5,2780
6,B6,3450

# Molecular target: cynomolgus BCMA on 293T-cynoBCMA cells (cynomolgus, UniProt Q02223 1-184 (human entry))
# Sequence (Q02223 other isoform, or with tags, fused parts or gaps): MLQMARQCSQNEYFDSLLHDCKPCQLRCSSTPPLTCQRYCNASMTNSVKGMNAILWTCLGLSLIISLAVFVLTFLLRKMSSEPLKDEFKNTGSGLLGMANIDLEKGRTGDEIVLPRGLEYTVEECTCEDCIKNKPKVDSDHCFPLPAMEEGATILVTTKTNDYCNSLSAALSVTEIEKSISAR
# Assay: FACS, 293T-cynoBCMA cells
# Protocol: as §1
row,Binder,Bmax (MFI)
1,B2,13200
2,B3,21200
3,B1,12800
4,B4,4540
5,B5,18200
6,B6,11400
